Test results taken from the nanobody polyreactivity screen of Harvey et al. (2022).

Experiment: yeast display, Sf9 membrane polyspecificity reagent, FACS + sequencing; frameworks hold sequencing errors
Outline: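 Using colony PCR, genes from sorted yeast display clones were amplified, then sequenced on MiSeq at 2 × 250 and filtered by CDR length. The clones had been stained with 10% biotinylated, detergent-solubilized Sf9 membrane reagent for 1 hour at 4 °C and sorted by FACS into low and high (top ~1%) gates on anti-HA and streptavidin fluorescence. Polyreactivity labels come from the gate of origin.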

Sequence	polyreactivity (PSR sort gate)
QVQLVESGGGLVQAGGSLRLSCAASGYIFVRNAMGWYRQAPGKERELVAAISRTDGTTYYADSVKGRFTISRDNAKNTVYLQMNSLKPEDTAVYYCAADYLRAPYYQYEYWGQGTQVTVSS	low polyreactivity
QVQLVESGGGLVQAGGSLRLSCAASGYIFVYNAMGWYRQAPGKERELVAAITDGGGSTYADSVKGRFTISRDNAKNTVYLQMNSLKPEDTAVYYCAARYSDTTWYVLYYYWGQGTQVTVSS	low polyreactivity
QVQLVESGGGLVQAGGSLRLSCAASGYIFWSYAMGWYRQAPGKERELVAAISAYGCRTYYADSVKGRFTISRDNAKTTVYLQMNSLKPEDTAVYYCNADTGNHAYWYYGEFYYYTYDYWGQGTQVTVSS	low polyreactivity
QVQLVESGGGLVQAGGSLRLSCAASGYIFYDYVMGWYRQAPGKEREVVAAISSGGNTNYADSVKGRFTISRDNAKNTVYLQMNSLKPEDTAVYYCAADRWGARRKQYHENGYWGQGTQVTVSS	high polyreactivity
QVQLVESGGGLVQAGGSLRLSCAASGYIFYHYAMGWYRQAPGKERELVATISLGGGRTYYADSVKGRFTISRDTAKNTVYLQMNSLKPEDTAVYYCAADDGPGFDYWGQGTQVTVSS	high polyreactivity
QVQLVESGGGLVQAGGSLRLSCAASGYIFYNAMGSYRQAPGKERELVAAISSSGGTTYADSVKGRFTISRDNAKNTVYLQMNSLKPEDTAVYYCAARSEFYWGWEYITYDYWGQGTQVTVSS	low polyreactivity
QVQLVESGGGLVQAGGSLRLSCAASGYIFYSNDMGWSRQAPGKVRELVAAIDNGGSTTYADSVKGRFTISRDNAKNTVYLQMNSLKPEDTAVYYCATDNPFTSTTYDYWGQGTQVTVSS	low polyreactivity
QVQLVESGGGLVQAGGSLRLSCAASGYIFYWYDMGWYRQAPGKEREMVAVIPTSGGSTYYADSVKGRFTISRDNAKNTVYLQMNSLKPEDTAVEYCNADSLFEYWDYDYWGQGTQVTVSS	low polyreactivity
QVQLVESGGGLVQAGGSLRLSCAASGYIFYYNAMGWYRQAPGKERELVAVISRTGASTYYADSVKGRFTISRDNAKNTVYLQMNSLKPEDTAVYYCAVRYETVDGNWRYFYWGQGTQVTVSS	high polyreactivity
QVQLVESGGGLVQAGGSLRLSCAASGYIFYYYAMGWYRQAPGKESELVAAISSTVSTNYADSVKGRFTISRDNAKNTVYLQMNSLKPEDSAVYYCAAAQRVNHVWYDYWGQGTQVTVSS	low polyreactivity
QVQLVESGGGLVQAGGSLRLSCAASGYIIFTNAMGWYRQAPGKERQLVAAISTIDGSTYYADSVKGRFTISRDNAKNTVYLQMNSLKPEDTAVYYCATDTPFISSLAYDYWGQGTQVTVSS	low polyreactivity
QVQLVESGGGLVQAGGSLRLSCAASGYIILGYAMGWYRQAPGKERELVAVINWSGGRTRYADSVKGRFTISRDNAKNTVYLQMNSLKPEDTAVYYCAAERSITYDYWGQGTQVTVSS	high polyreactivity
QVQLVESGGGLVQAGGSLRLSCAASGYIINYNAMGWYRQAPGKERELVAAISSRGGSTYYADSVKGRFTISRDNAKNTVYLQMNSLKPEDTAVYYCNARYYSWYQRYDRRRGYDYWGQGTQVTVSS	low polyreactivity
QVQLVESGGGLVQAGGSLRLSCAASGYIIYVYAMGWYRQAPGKERELVADISLNGGSTYYADSVKGRFTISRDNAKNTVYLEMNSLKPEDTAVYYCAADGWLYRTYWYYYWGQGTQVTVSS	high polyreactivity
QVQLVESGGGLVQAGGSLRLSCAASGYILFAYAMGWYRQAPGKERELVATITTSGGITYYADSVKGRFTISRDNAKNTVYLQMNSLKPEDTAVYYCAAAEGGGLVTYDYWGQGTQVTVSS	low polyreactivity
QVQLVESGGGLVQAGGSLRLSCAASGYILYGYAMGGYRQAPGKERELVAAISNDGSTYYADSVKGRFTISRDNAKNSVYLQMNSLKTEDTAVYYCNAREYGYFKYDYWGQGTQVTVSS	high polyreactivity
